Reference: patent US20240327477A1, “COMPOSITIONS AND METHODS FOR THE TREATMENT OF TDP-43 PROTEINOPATHIES” (SOLA BIOSCIENCES LLC, priority 2020, published 2024)
One block for each molecule: values may come before it.

Columns and labels:
Format in all cases: cell-based
[1] = biological target: T1, phosphorylated GFP-TDP43CTF reporter (Homo sapiens, UniProt Q13148); test: Immunoblot with anti-phospho TDP43 antibody (cell extracts and fractions); conditions: cell extracts, anti-phosphoTDP43 antibody, Table 13 (FIG. 12)
T1 construct: expressed in transfected cells; host or cells: HEK293

[2] = biological target: T2, GFP-TDP43CTF (Homo sapiens, UniProt Q13148); test: Fluorescence microscopy of GFP-TDP43CTF aggregation (GFP foci) in transfected HEK293 cells; conditions: HEK293 cells; for % Aggregation (normalized to GFP-TDP43CTF alone): GFP-TDP43CTF reporter
T2 construct: expressed in transfected cells; host or cells: HEK293
Experimental: (§1) Expression vector plasmids encoding various protein constructs were transfected into HEK293 cells with Lipofectamine 3000 transfection reagent (Thermo Fisher Scientific). Cell lysates were analyzed for expressed proteins using immunoblot assays. Samples of culture media were centrifuged to remove debris prior to analysis. Cells were lysed in a lysis buffer (10 mM Tris-HCl, pH 8.0, 150 mM NaCl, 10 mM EDTA, 2% SDS) containing 2 mM PMSF and protease cocktail (Complete Protease Inhibitor Cocktail; Sigma). After brief sonication, the samples were analyzed for expressed proteins using immunoblot assays. For immunoblot analysis, samples were boiled in an SDS-sample buffer and run on polyacrylamide electrophoresis. Thereafter, the separated protein bands were transferred to a PVDF membrane.
(§2) In some instances, aggregation of TDP-43 (full-length of C-terminal fragment) GFP reporter constructs (described below) were detected in vivo using fluorescence microscopy. Cultured cells expressing the reporter constructs as well as the fusion protein comprising the J domain and TDP-43-binding domain were washed with PBS and fixed with 4% paraformaldehyde in PBS for 5 minutes. After three 5-min washes with PBS, nuclear DNA was stained with DAPI. Percentage of cells containing TDP-43 (GFP foci) in transfected cells was counted.
We first investigated whether the fusion molecule of the present invention targeting TDP-43 ameliorates its aggregation in cultured cells. To this end, we generated GFP-based reporter constructs GFP-TDP43 and GFP-TDP43, wherein GFP was fused at its C-terminus to either the full-length human TDP-43 protein or the C-terminal fragment TDP-43 which is known to form cytoplasmic aggregation and cytotoxicity (See Table 8 below). HEK293 cells were cultured and transfected with the plasmids encoding the full-length TDP43 or the C-terminal fragment of TDP43, containing the C-terminal 207 amino acids TDP-43 (amino acids 208-414 of human TDP-43) as a GFP fusion [GFP-TDP43FL (SEQ ID NO: 101) or GFP-TDP43CTF (SEQ ID NO: 102)].

[3] = biological target: T3, GFP-TDP43FL (Homo sapiens, UniProt Q13148); test: Immunoblot (anti-GFP) of reporter level in cell extracts; conditions: cell extracts (FIG. 5)
T3 construct: expressed in transfected cells; host or cells: HEK293
Experimental: as §1
(§3) Expressed proteins were detected using a chemiluminescent signal. Briefly, blots were reacted with a primary antibody capable of binding the particular epitope (e.g., GFP). After rinsing away the unreacted primary antibody, a secondary, enzyme-linked antibody (e.g., HRP-linked anti-lgG antibody) was allowed to react with the primary antibody molecules bound to the blots. Following rinsing, a chemiluminescent reagent was added, and the resultant chemiluminescent signals in the blots were captured on X-ray film.

[4] = biological target: T3, GFP-TDP43FL; test: Fluorescence microscopy of GFP-TDP43FL aggregation (GFP foci) in transfected HEK293 cells; conditions: GFP-TDP43FL reporter, HEK293 cells, Table 10 (FIG. 3/4)
Experimental: as §1
as §2, with “counted. […]” for “counted.”

[5] = biological target: T1, phosphorylated GFP-TDP43CTF reporter; test: Immunoblot with anti-phospho TDP43 antibody (cell extracts and fractions)
From the text: Cells expressing either GFP-TDP43FL (lanes 1 and 7) or GFP-TDP43CTF (lanes 2-6, 8-12) were co-transfected with Construct 3 (lanes 3 and 9), Construct 17 (lanes 4 and 10), Construct 18 (lanes 5 and 11) and Construct 19 (lanes 6 and 12). Soluble fractions (lanes 1-6) and insoluble fractions (lanes 7-12) were probed with anti-phospho TDP43 antibodies.
as §1, §3
Transfected HEK293 cells are homogenized in RIPA buffer (50 mM Tris, pH7.5, 150 mM NaCl, 0.1% NP-40, 0.5% sodium deoxycholate, 0.1% SDS) supplemented with protease inhibitor cocktail, 2 mM PMSF, 10 mM NaF, and 2 mM Na3VO4. After brief sonication, protein concentration is measured by BCA assay kit (Pierce). […]

B1: 15 (protein)
chain: MDYYKILGVDKNASEDEIKKAYRKRALMHHPDRHSGASAEVQKEEEKKFKEVGEAFTILSDPKKKTRYDSGQDIGGGGSGGGGSGGGGSGGGGSAAAEVQLQQSGAELVKPGASVKLSCTASGFNIKDYYMHWVKQRTEQGLEWIGRIDPEDGETKYAPKFQGKATITADTSSNTAYLQLSSLTSEDTAVYYCTIIYYYGSRYVDYWGQGTTLTVSGGGGSGGGGSGGGGSEIVLTQSPTTMAASPGEKITITCSASSSISSSYLHWYQQKPGFSPKLLIYRTSNLASGVPARFSGSGSGTSYSLTIGTMEAEDVATYYCQQGSSIPLTFGSGTKLEI
% Phospho-TDP43 density (normalized to GFP-TDP43CTF alone) [1]: 47.89%

B2: Construct 2: scFv(3B12A)-only control; binds TDP-43 (protein)
scFv: MGTGSEFDIAAAEVQLQQSGAELVKPGASVKLSCTASGFNIKDYYMHWVKQRTEQGLEWIGRIDPEDGETKYAPKFQGKATITADTSSNTAYLQLSSLTSEDTAVYYCTIIYYYGSRYVDYWGQGTTLTVSGGGGSGGGGSGGGGSEIVLTQSPTTMAASPGEKITITCSASSSISSSYLHWYQQKPGFSPKLLIYRTSNLASGVPARFSGSGSGTSYSLTIGTMEAEDVATYYCQQGSSIPLTFGSGTKLEI
aggregation of GFP-TDP43CTF reporter in cells (in words) ([2]; vs reporter alone): did not reduce aggregation
levels of the full-length reporter construct (GFP-TDP43FL), anti-GFP immunoblot (in words) [3]: No differences

B3: 2 (protein)
scFv: B2 scFv
% Aggregation (normalized to GFP-TDP43CTF alone) ([2]; Table 10 (FIG. 3/4)): 80.05%
% Aggregation (normalized to GFP-TDP43CTF alone) ([2]; Table 12 (FIG. 8/9A)): 98.40%
% Phospho-TDP43 density (normalized to GFP-TDP43CTF alone) [1]: 122.81%
% Aggregation (normalized to GFP-TDP43CTF alone) [4]: 5.86%

B5: 16 (protein)
chain: MGQDYYSVLGITRNSEDAQIKQAYRRLALKHHPLKSNEPSSAEIFRQIAEAYDVLSDPMKRGIYDKFGEEGLKGGDIGGGGSGGGGSGGGGSGGGGSAAAEVQLQQSGAELVKPGASVKLSCTASGFNIKDYYMHWVKQRTEQGLEWIGRIDPEDGETKYAPKFQGKATITADTSSNTAYLQLSSLTSEDTAVYYCTIIYYYGSRYVDYWGQGTTLTVSGGGGSGGGGSGGGGSEIVLTQSPTTMAASPGEKITITCSASSSISSSYLHWYQQKPGFSPKLLIYRTSNLASGVPARFSGSGSGTSYSLTIGTMEAEDVATYYCQQGSSIPLTFGSGTKLEI
% Phospho-TDP43 density (normalized to GFP-TDP43CTF alone) [1]: 106.49%

B6: 19 (protein)
chain: MGKDYYQTLGLARGASDEEIKRAYRRQALRYHPDKNKEPGAEEKFKEIAEAYDVLSDPRKREIFDRYGEEGLKGSEVQLQQSGAELVKPGASVKLSCTASGFNIKDYYMHWVKQRTEQGLEWIGRIDPEDGETKYAPKFQGKATITADTSSNTAYLQLSSLTSEDTAVYYCTIIYYYGSRYVDYWGQGTTLTVSGGGGSGGGGSGGGGSEIVLTQSPTTMAASPGEKITITCSASSSISSSYLHWYQQKPGFSPKLLIYRTSNLASGVPARFSGSGSGTSYSLTIGTMEAEDVATYYCQQGSSIPLTFGSGTKLEI
% Phospho-TDP43 density (normalized to GFP-TDP43CTF alone) Insoluble fraction ([5]; insoluble fraction, Table 14 (FIG. 14)): 22.77%
% Phospho-TDP43 density (normalized to GFP-TDP43CTF alone) Soluble fraction ([5]; soluble fraction, Table 14 (FIG. 14)): 11.20%

Second part, the molecule after the results:

ability to reduce aggregation of the GFP-TDP43CTF reporter construct (in words, with Tables 13 and 14) ([5]; HEK293 cells): not able to reduce aggregation
B4: Construct 16: comprises a J domain without the consensus HPD sequence (SEQ ID NO: 16), fused to scFv(3B12A) (protein)
chain: B5 chain

% Aggregation (normalized to GFP-TDP43CTF alone) ([2]; Table 12 (FIG. 8/9A)): 115.34%
B7: 11 (protein)
chain: MSVVGLDVGSQSCYIAVARAGGIETIANEFSDRCTPSVISFGSKNRTIGVAAKNQQITHANNTVSNFKRFHGRAFNDPFIQKEKENLSYDLVPLKNGGVGIKVMYMGEEHLFSVEQITAMLLTKLKETAENSLKKPVTDCVISVPSFFTDAERRSVLDAAQIVGLNCLRLMNDMTAVALNYGIYKQDLPSLDEKPRIVVFVDMGHSAFQVSACAFNKGKLKVLGTAFDPFLGGKNFDEKLVEHFCAEFKTKYKLDAKSKIRALLRLYQECEKLKKLMSSNSTDLPLNIECFMNDKDVSGKMNRSQFEELCAELLQKIEVPLYSLLEQTHLKVEDVSAVEIVGGATRIPAVKERIAKFFGKDISTTLNADEAVARGCALQCAILSPAFKVREFSVTDAVPFPISLIWNHDSEDTEGVHEVFSRNHAAPFSKVLTFLRRGPFELEAFYSDPQGVPYPEAKIGRFVVQNVSAQKDGEKSRVKVKVRVNTHGIFTISTASMVEKVPTEENEMSSEADMECLNQRPPENPDTDANEKKVDQPPEAKKPKIKVVNVELPIEANLVWQLGKDLLNMYIETEGKMIMQDKLEKERNDAKNAVEEYVYEFRDKLCGPYEKFICEQDHQNFLRLLTETEDWLYEEGEDQAKQAYVDKLEELMKIGTPVKVRFQEAEERPKMFEELGQRLQHYAKIAADFRNKDEKYNHIDESEMKKVEKSVNEVMEWMNNVMNAQAKKSLDQDPVVRAQEIKTKIKELNNTCEPVVTQPKPKIESPKLERTPNGPNIDKKEEDLEDKNNFGAEPPHQNGECYPNEKNSVNMDLD
